Publication PMC4369792

What was measured:
[1] = molecular target: fibronectin from human plasma (human); assay: single-molecule force spectroscopy
[2] = molecular target: salivary agglutinin (SAG) glycoprotein complex (UniProt Q9UGM3); assay: single-molecule force spectroscopy
[3] = molecular target: salivary agglutinin (SAG) glycoprotein complex (UniProt Q9UGM3); assay: single-cell force spectroscopy

Sequence of UniProt Q9UGM3 (Q9UGM3 whole entry, looked up, one chain of several): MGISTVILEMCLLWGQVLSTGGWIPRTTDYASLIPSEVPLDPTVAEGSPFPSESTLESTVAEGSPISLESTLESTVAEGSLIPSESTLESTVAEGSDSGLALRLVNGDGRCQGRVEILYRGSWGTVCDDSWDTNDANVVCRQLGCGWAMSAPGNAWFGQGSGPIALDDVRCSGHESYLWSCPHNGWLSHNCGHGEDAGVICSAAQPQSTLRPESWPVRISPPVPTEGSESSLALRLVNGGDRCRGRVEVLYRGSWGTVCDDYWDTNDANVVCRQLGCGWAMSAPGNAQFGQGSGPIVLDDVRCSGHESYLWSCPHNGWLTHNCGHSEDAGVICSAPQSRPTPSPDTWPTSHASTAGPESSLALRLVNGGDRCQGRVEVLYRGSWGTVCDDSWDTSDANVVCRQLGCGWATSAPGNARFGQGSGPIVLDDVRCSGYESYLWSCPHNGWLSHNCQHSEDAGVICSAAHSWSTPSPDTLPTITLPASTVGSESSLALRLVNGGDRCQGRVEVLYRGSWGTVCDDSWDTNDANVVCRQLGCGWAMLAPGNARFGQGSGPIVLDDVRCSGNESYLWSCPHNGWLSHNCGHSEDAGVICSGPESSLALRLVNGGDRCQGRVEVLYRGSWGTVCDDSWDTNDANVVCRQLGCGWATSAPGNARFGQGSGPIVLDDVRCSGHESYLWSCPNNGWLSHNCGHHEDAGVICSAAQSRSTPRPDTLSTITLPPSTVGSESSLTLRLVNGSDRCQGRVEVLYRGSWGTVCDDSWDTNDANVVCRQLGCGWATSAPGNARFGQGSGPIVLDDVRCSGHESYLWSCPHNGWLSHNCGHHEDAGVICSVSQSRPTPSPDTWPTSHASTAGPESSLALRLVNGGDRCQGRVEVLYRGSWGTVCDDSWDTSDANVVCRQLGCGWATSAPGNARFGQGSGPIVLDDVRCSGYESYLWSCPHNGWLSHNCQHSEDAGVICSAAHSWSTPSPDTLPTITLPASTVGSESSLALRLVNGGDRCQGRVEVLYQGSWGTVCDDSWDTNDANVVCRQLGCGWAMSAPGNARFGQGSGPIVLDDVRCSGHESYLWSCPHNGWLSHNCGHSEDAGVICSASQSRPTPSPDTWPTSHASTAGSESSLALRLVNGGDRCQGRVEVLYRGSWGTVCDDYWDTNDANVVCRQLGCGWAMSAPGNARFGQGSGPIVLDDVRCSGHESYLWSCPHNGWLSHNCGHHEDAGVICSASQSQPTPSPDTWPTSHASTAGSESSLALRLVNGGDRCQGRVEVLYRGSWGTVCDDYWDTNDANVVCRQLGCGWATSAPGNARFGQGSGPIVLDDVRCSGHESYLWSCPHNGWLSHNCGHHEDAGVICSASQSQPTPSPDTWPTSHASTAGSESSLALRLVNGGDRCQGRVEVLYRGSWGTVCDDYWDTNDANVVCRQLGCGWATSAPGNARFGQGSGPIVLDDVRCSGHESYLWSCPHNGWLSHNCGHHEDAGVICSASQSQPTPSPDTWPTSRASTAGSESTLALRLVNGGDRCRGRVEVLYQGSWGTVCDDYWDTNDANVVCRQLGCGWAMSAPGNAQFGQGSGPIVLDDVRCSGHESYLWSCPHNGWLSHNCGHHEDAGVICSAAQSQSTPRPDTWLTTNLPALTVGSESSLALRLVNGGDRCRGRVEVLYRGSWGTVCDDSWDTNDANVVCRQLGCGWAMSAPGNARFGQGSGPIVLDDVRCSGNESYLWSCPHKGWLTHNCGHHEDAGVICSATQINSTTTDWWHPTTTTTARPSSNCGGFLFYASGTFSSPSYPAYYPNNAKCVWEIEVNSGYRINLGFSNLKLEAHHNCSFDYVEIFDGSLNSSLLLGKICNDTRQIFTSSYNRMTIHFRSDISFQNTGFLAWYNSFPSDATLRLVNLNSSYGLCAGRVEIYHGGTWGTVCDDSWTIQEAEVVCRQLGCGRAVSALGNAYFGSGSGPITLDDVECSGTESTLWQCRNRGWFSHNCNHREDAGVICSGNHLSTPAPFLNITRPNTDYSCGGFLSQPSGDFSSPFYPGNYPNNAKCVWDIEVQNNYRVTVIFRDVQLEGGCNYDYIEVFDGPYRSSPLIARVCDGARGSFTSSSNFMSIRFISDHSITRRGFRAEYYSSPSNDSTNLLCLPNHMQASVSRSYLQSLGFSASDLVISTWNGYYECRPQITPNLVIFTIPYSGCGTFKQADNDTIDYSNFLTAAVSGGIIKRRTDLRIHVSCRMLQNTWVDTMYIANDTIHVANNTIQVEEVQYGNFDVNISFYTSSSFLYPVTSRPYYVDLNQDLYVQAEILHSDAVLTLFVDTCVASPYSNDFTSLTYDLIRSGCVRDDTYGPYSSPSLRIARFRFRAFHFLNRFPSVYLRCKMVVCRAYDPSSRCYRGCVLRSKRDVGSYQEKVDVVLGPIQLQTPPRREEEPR

## P1 globular head fragment (A3VP1) (domain or fragment)
[1]
  binding frequency: 49%

## full-length P1 adhesin of Streptococcus mutans (from UniProt P23504 39-1532) (natural protein)
[1]
  mean adhesion force: 46 pN
[2]
  most probable adhesion force: 57 pN

## cell surface-localized P1 on living Streptococcus mutans NG8 cells (from UniProt P23504 39-1532) (natural protein)
[3]
  adhesion force: 100 to 1500 pN
